This note sets out measurements from a protein production outcome set (Wang et al. 2014).

The series in a line: label from the status in PepcDB records.
As to “MDKHKKNNQKEKRVKRNLKTLLLGSPREITIPGSRFPNGTQNLVPVVDIQKGVLITEDGRYIKVLEIVPTNFYLKSRIEQQNIIYYFSCYLKIAPQSLQILVCTQRADIDAYCDQMEKYYNREKNENCKAMILEDAQLVNYLASYEAVTRRFYLIYEYKGEATEFTEISKELADQAETAYQYLDYCGLEVLRHDNYDEFLLRTVYTAYHKQSARNINFSALMEQVGPVFNTPEITEDQLEEEDSEGITTIQDVLAPTEADLEHSKYILIDGVYHAYLYITGYSYPTERGLAWLSPLIELGDGISLSFFLEKKRKEQILSKVVKTTMINRSRLRDIEDIRADYEELDDAIYSGMYIKDRLNRDGEDFFYMHTLIEVTALDETTLNKRIKQVQNLCVSMDMTARRADWCHEQCFRSMLPIAKLDMDIAKRTQRNVLTSGAAGAFPFSSFELCDNKGVLMGINLHNNSAVIVDNFNSDIYSNGNLAIFGMSGAGKTYTLLLLAMRLRMCGVQVFIIAPEKGFEYRCACEAIGGQFLRLSPGSEDCINLMEIRRSTLDIDSNLANNIQRNDSVLLSKVQDLHTYIRLRYPQITPEEAYQLNIAILECYESFGITKDNRSLLNPDGSFKAMPDFTHLYSCLLKYPSLKNVALAVKEIIDFGMGGQTNVDLFSSFIVLDTSGAKKKDISSSTFVATSFIRDELSRSRTRKKAVLGDELWVIAGEEGNEQAADFIIEMVKLIRGYGAIFVSATQNTLDYFALRDGKFGDALLNNSRLKLLLQMEEAEAIKLQEKLGLSDEEVMQVVRCGRGQGLLCAGKNRIGIEIRSSQTEYELITTNRTDLEKREARTDTAEL”, the protein production result is “failed”.

In the case of “GHFPRACVSSKNLMEKECCPPWSGDRSPCGQLSGRGSCQNILLSNAPLGPQFPFTGVDDRESWPSVFYNRTCQCSGNFMGFNCGNCKFGFWGPNCTERRLLVRRNIFDLSAPEKDKFFAYLTLAKHTISSDYVIPIGTYGQMKNGSTPMFNDINIYDLFVWMHYYVSMDALLGGSEIWRDIDFAHEAPAFLPWHRLFLLRWEQEIQKLTGDENFTIPYWDWRDAEKCDICTDEYMGGQHPTNPNLLSPASFFSSWQIVCSRLEEYNSHQSLCNGTPEGPLRRNPGNHDKSRTPRLPSSADVEFCLSLTQYESGSMDKAANFSFRNTLEGFASPLTGIADASQSSMHNALHIYMNGTMSQVQGSANDPIFLLHHAFVDSIFEQWLRRHRPLQEVYPEANAPIGHNRESYMVPFIPLYRNGDFFISSKDLGYDYSYLQDSDPDSFQDYIKSYLEQASRIWSWLLGAAMVGAVLTALLAGLVSLLCRHKRKQLPEEKQPLLMEKEDYHSLYQSHL”, the protein production entry is “failed”.

On to “MLSVFVVNLRSNSAPFSFSRLLMHTTIVNERSLRTCNFPITLQDIRTLKELYRLKAETRDLRKPIVRNIMKQRVVGKGCLESLKNALYSLETIYIDDYTGQRLLRIDGMKQIEVDLTYEIRELQKDIYYLEYGEDRFIEYLAKFIPGFTDYVTEGVEMLRGKSFNAFITDRDGTTNNYCGRYRSSIQPIYNSVFLSRFAKNCCRYPMIVTSAPLKDFGILNVSINPEHIFVYAGSKGREFIDIDGQFHSFPIEPGKQELIRLLNERMQLLLLDPSFEKFNFIGSALQMKFGQTTIARQDITRSVNEAESAAFLEKIKGIVRDIDPEGKNFRIEDTGLDIEIILTIDVDPKTGMIRDFDKGDGLEFICRKMNIDHTGEPVLVCGDTSSDIPMLKKAMEMYDDVWAIFVTRDEKLMQRVREICPKSYMVPYPDILLTILGLLSL”, for which the protein production entry is recorded as “failed”.

“MDKHIIGENAGKLWRLLSTDVHRKWTLQEVKDATGFNDLEAASAIGWLAREDKIQFELEHHSTKDKNVFLYLMLNVYFLEHHHHHH”: the protein production entry is listed as “not failed”.

Turning to “DCYKNFVAKKCAGCKNPITGFGKGSSVVAYEGQSWHDYCFHCKKCSVNLANKRFVFHQEQVYCPDCAKKL”, the protein production entry is reported as “not failed”.

For “MSHGGGGHAAELYPEEQIFAVGIALSLVGCYLANFLSPYGLGMLIGGLLASAACVAGANTVRKVAAYGLGTGVPSIGMVSLGMGTLAAVAGVLIPDYFNLPYLVAPIITLIVSAVIGYIVGRLTVNPVGMKIPIMVRSMTFLSIAGAMALLGFTVAYVGSLEPQKYIDYALNNGMMALAFIAAGMAILHPFNACLGPNESHKRTLTLAVACGFITWFVFSVVKLDIVSIIVSIILWAIVYVKFVKMSFKDACAVLHVPEIPKKEE”, the protein production entry is “failed”.

For “MPETAWLSDIETLTYLHATVSTHRHQVRVPETPMHLDAILADQVLTGGLEPRLGQAHLRTLTIMGFPSQTWPGLLDDLNRLAFDYRWVTRAICLDKTDAAKVLGRIRRQWFAKRKSIAAMLKEIMTNEASALMDSDAANKAVDADMALQELGSDLVGAAYVTATVTIWNDDPRIADERLRLVEKVIQGRDFTCMVERVNAVEAWLGSLPGHVYANVRQPPVSTLNLAHMMPFSAVWAGPERDEHFDAPPLFLAKTEGSTPFRFSLHVGDVGHTLVVGPTGAGKSVLLALMALQFRRYARSQIFAFDFGGSIRAAALAMRGDWHDLGGSLAEDASEPVALQPLAGIDAEEERAWAAEWVAAILAREKVEITPDVKEHVWSALNNLASAPKSERTLTGLSVLLQSQALKQALKPYCVGGPWGRLLDAETERVGSADVLAFETEGLIGTGAAAAVLAYLFHRIEHRLDGRPTLLIVDEGWLALDDEGFASQLREWLKTLRKKNASVIFATQSLADIDGSAIAPAIIESCPTRLFLPNERALEPQIATIYERFGLNDRQIEILSRATPKRDYYCQSRRGNRLFELGLGEVALAFTAASSKGDQILIARLMAEHGPTGFAKAWLEARGVAWATDLIITPQKEKLPLEHHHHHH”, the protein production entry was “not failed”.

With “MSRNEVLLNGDINFKEVRCVGDNGEVYGIISSKEALHIAQNLGLDLVLISASAKPPVCKVMDYNKFRYQNEKKIKEAKKKQKQIEIKEIKLSTQIAQNDINYKVKHAREFIESNKHVKFKVVLKGRESQNSKAGLDVLFRVQTMMQDLANPEKEPKTEGRFVSWMFVPKAKEAPKNEKKTKENNPPFNRINLMKGENHAKNED”, the protein production entry was “failed”.

As to “MDQCYFENSLSTECIIRSASRSDGCQMPKLFCQNLPPPLPPKKYAITSVPQSEKSESTPDVKLTEVFKATSHLPKHSLSTASEPSLEVSTHMNDERHKETFQVRECFGNTPNCPSSSSTNDFQANSGAIDAFCQPELDSISTCPNETVSLTTYFSVDSCMTDTYRLKYHQRPKLSFPESSGFCNNSLS”, the protein production result is “failed”.

Take “MEGSQQTITSKQLVRMLKDASRGSKGKGSGEMKFCFLIGAGASISSGIPSGAKLAWDWLQQIKEDCDGEDFEDWKIEIKMPDQHIEERVGEFYPEIYEKRFGHAPETGYDYIRGLMEGREPSLGYLILANIMVREKHNVVITTNFDNLLEDAIRTYTKEKPFIAGHEALADYVPKRSDRPIILKLHRDLFLQPFSDQLNTDILQAAWESILGKFLSDYHLIVLGYGGNDGSLMNYLLKLKNRKPIYWCVRNTDKATSKSLWNTLSPKAKRLLKNDGYLVPIDDFDRFMYDCYAALGYKFLEGIEKIEKPKSIHEILKPNYARIESIQTQLRQLSQTEEELSKESFQSIKSFLPDSWMWILKANQEKDIDKKDKIYREGIAKYPQDANLLGDYADFLCDICHD”: the protein production result is listed as “not failed”.

Turning to “MICLPETGFLAEASPRLKQMLAAQAAEIGLARGDTLFKQGDPGDALYAVLSGALEISILSLDGRKLSLDLVGPGAVFGEIALFDPGPRTATVSAAEPARVLRVLSADVMAELRRHPELAIDMVRLAGQRMRWMGGQLNEQVFLPVPTRLARKLLHLAPHHDAGGATVRLSQAELAEYVGATREAVSKTLAHWKRMGVIEVARGTLAIRDPQALRALADPDQI”, the protein production result is “failed”.

For the sequence “QKGRVETRRVVHIMDFQRGKNLRYQLLQLVEPFGVISNHLILNKINEAFIEMATTEDAQAAVDYYTTTPALVFGKPVRVHLSQKYKRIK”, the protein production result is given as “not failed”.

For the sequence “MAKQDVIELEGTVLDTLPNAMFKVELENGHEILAHVSGKIRMNYIRILPGDKVTVEMSPYDLTRGRITYRYK”, the protein production entry is given as “failed”.

For the sequence “MAVYHLLLSSPPSLLLLPPSPRRPNLTLIRRIPAHPRLGNSTSLLSSSSPVIRKILVRSTLREDQPIASDSESSPTLLIGEDSAAFELGKQKLVSWVYFGVVLGVVLFILNVVWIDNSTGFGKSFIDAVSNISGSPEVAMLMLILIFAIVHSGLASLRDIGEKLIGERAFRVLFAGISLPLAMSTIVYFINHRYDGSQLWQLQGVPGVHEAIWVANFVSFFFLYPSTFNLLEVAAVDKPKMHLWETGIMRITRHPQMVGQIVWCLAHTLWIGNTVAASASLGLIAHHLFGAWNGDRRLAKRYGEDFESIKKRTSVIPFAAIFEGRQVLPEDYYKEFVRLPYLAITALTVGAYFAHPLMQGASFRLHW”, the protein production result is “failed”.

“MNSFKEGEYVLIRFGEKKFLRKLLPKQSLSVKKSVLKFDEVIGKPEGVKINGFEVYRPTLEEIILLGFERKTQIIYPKDSFYIALKLNLNKEKRVLEFGTGSGALLAVLSEVAGEVWTFEAVEEFYKTAQKNLKKFNLGKNVKFFNVDFKDAEVPEGIFHAAFVDVREPWHYLEKVHKSLMEGAPVGFLLPTANQVIKLLESIENYFGNLEVVEILHRHYKTISERFRPEDQMVAHTAYLVFGRKLKT”: the protein production result is on record as “not failed”.

With “MADETNALRQKNRELNKKIDWQKDYDREKLERDNRDLEQCKEDLLAANENLRNRIQEWENEKNKLDPRDERIKELEEEKRELEGILAQKENAEQKYNTLSVKNKQLEAELDMLNEKFEKLKNMYAGVEDFEKRQKNIKEQIVKTNPKVLGAPSNEVEELAFLERIEKGMQEFNVFYPKRLLYMFHTALKSTSLSPLSVLSGVSGTGKSELPKLYVHFGGLNFLSIAVQPTWDSPESLMGYFHAIENKFDATEFLRFFIQTTLSNNEEPYGLKEAMSIVLLDEMNLAHIELYFAEFLSKLEIKCSQETNISIKLGTGLTWELPLGDNLLFVGTMNEDESTKMLSDKVLDRAFCLNFERPKILKGKQQKPIPSNDGYLKVETFNRWINKKGDQEAKLEGKYKKLTEEINERLDACGRSIGHRVWQSMSTYMHNHPLVLHASDKNKALQFAYEECLVLKIFPKLRGVQTRNNQHLTKIQDLLKDFSVSSDFKQAMENDFKEFVFNSTNYLNNVEYEKLLKK”, the protein production result is “failed”.

As to “MTGCSHRFYYSHMIQTSVRSFEVGEDLASMAVDERISLLRSRMQSISKSGDFSLDYNCKTADKNIIPLSDPLSHVLPWGGLPRGMIVESTITPLLAILFIAQVSGSGRRVGVVGWPDLNYAGVLGYGGCYERIFAVPQQERTSLRVVTALAHGCDLVITRAGPTPRTYTPLQTQRFRNSLRSDAGCVIMMGDHVVSPAARLASAVVGYHGIGKGTGRIKAVEITVTGIAKGFYRTSRVIVGKHIAPAAEKTTMKVVLEHHHHHH”, the protein production result is on record as “not failed”.

Consider “MSRVPGWLGRLGAGLTRASERLEQRREEARRDDADDGPGPVSDHERRPLDDTAEDSAVEHLAAHRPVALAHRPDPAQAVPWGVRVAAEAGWRLLVLAGTVWVLMRVISAVQLVVLAFVAALLITALLQPAVAWLRRHGVPRGPATALTAILGFVVMGLIGWFVTWQVMENIDNLSDQVQDGIDELRNWLLNSPFHVTDKQINEIAKNLRDAVGANTDQITSAGLEGVTVVVEALTGILLAAFSTLFLLYDGKRIWQWSLKLVPAAARPGVAGAGPRAWRTLTAYVRGTVIVALIDAIFIGLGIYFLDVPMAVPLAVFIFLFAFIPLVGAVVSGALAVVVALVTQGVFAAVMTLVVVLAVQQIEGHILQPFILGRAVRVHPLAVVLSVAAGGMVAGIGGAVVAVPLVAVTNTVVGYLRAYSREAALRRTPRPHGATSTDAAPAVDRVPGPPKPPAPPADGPPSDAP”, for which the protein production result is “failed”.
